{"source": "patent US20260199558A1", "about": "“INJECTABLE COMPOSITIONS FOR TREATING JOINT CONDITIONS” (Ohio State Innovation Foundation, priority 2022, published 2026)", "key": {"[1]": {"test_system": "human annulus fibrosus (AF) cells", "assay": "PDA nanoparticle / free bevacizumab dose effect on human annulus fibrosus (AF) cell viability", "format": "cell-based", "details": "doses higher than 1 mg/mL"}, "[2]": {"test_system": "human cartilage endplate (CEP) cells", "assay": "PDA nanoparticle / free bevacizumab dose effect on human cartilage endplate (CEP) cell viability", "format": "cell-based"}}, "data": [{"substance": "Bevacizumab", "values": [{"measurement": "cell viability", "setting": "[1]", "result": "approximately 30%"}, {"measurement": "cell viability", "setting": "[2]; 1 mg/mL dosing", "result": 30, "unit": "%"}, {"measurement": "cell viability", "setting": "[2]; up to 0.5 mg/mL", "result": "> 80", "unit": "%"}]}]}
